Reference: patent US20260125454A1 (SHANGHAI JUNSHI BIOSCIENCES, published 2026)
Numbering of substitutions follows the chain as printed. Bridges are numbered along the chain shown (N, C = ends). Where no end group is shown, it is not given here. The star is where a group is joined. Biotin = O=C1N[C@H]2[C@H](CS[C@H]2CCCCC(=O)*)N1

T1: hCGRP(8-26) (human, N-terminal biotin)
T1 construct: also called polypeptide 8-26
T1 peptide: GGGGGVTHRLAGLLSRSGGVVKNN

T2: hCGRP(1-37) (human, N-terminal biotin; C-terminal phenylalanine amide (F-NH2); CYS residues at positions 7 and 12 theoretically form 1 intrachain disulfide bond)
T2 construct: also called polypeptide 1-37; full-length hCGRP (1-37) polypeptide
T2 peptide: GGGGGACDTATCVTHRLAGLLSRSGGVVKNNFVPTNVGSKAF

T3: hCGRP(1-19) (human, N-terminal biotin; CYS residues at positions 7 and 12 theoretically form 1 intrachain disulfide bond)
T3 construct: also called polypeptide 1-19
T3 peptide: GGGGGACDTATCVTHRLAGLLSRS

T4: hCGRP(8-19) (human)
T4 construct: also called polypeptide 8-19
T4 peptide: Biotin-GGGGGVTHRLAGLLSRS

T5: Biotin-huCGRPaSA (human, not fully specified; biotin (position not given))
T5 construct: exact construct ('aSA') not explained; also called Biotin CGRPaSA; full-length (1-37) CGRP
T5 peptide: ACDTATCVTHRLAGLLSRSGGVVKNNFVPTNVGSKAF

T6: Biotin-1-19 polypeptide (human, disulfide 2-7; not fully specified (N-terminus); printed as Biotin-Linker(G5)-ACDTATCVTHRLAGLLSRS; ends not checked; also: biotin, position not given here)
T6 construct: also called fragment CGRP (1-19); truncated (1-19) CGRP
T6 peptide: ACDTATCVTHRLAGLLSRS

B1: hu224 Fab (Fab, V domains shown)
VH: QVQLVQSGAEVKKPGASVKVSCKASGYSFTGYTMNWVRQAPGQRLEWMGLINPYIGNTHYNQKFKDRVTFTVDRSSSTAYMELSSLRSEDTAVYYCARELDSGFDYWGQGTLVTVSS
VL: DVVMTQSPDSLAVSLGERATINCRSSQNIVHSNGDTYLEWYQQKPGQPPKLLIYKVSNRFSGVPDRFSGSGSGTDFTLTISSLQAEDVAVYYCYQGSHVPWTFGQGTKLEIK
notes: also called Fab monomer fragments derived from humanized antibody hu224
B2: C85 (antibody, V domains shown)
VH: EVQLQQSGPELVKPGASVKISCKTSGYTFIDFNMHWVKQSHGKSLEWIGYIYPYNGDVVYNQNFTNKATLTVDSSSSTAYMELRRVTSEDSAIYYCAREGLGGYWGQGTTLTVSS
VL: DIVLTQSPASLAVSLGQRATISCKASQNIDYDGYTYLNWYQQKPGQPPKVLIYSIFNLESGIPARFSGSGSGTDFTLNIHPVEEEDAATYYCQQSNEVPYTFGGGTKLEIK
notes: 1F5-HC + 3E5-LC; chimeric, human constant regions
B3: C232 (antibody, V domains shown)
VH: EVQLQQSGPELVKPGASMKISCKASGYSFTGYTMNWVKQSHGNNLEWIGLINPYIGNTHYNQKFKDKATFTVDRSSSTAYMALLSLTSEDSAVYYCARELDSGFDYWGQGTTLTVSS
VL: B2 VL with T35A, I55V, V98F, I110V
notes: 3C1-HC + 1A2-LC2; chimeric, human constant regions
B4: C92 (antibody, V domains shown)
VH: B2 VH
VL: B2 VL with A9D, D32G, T35S, L37M, I55V, N78T, V98A, K111R
notes: 1F5-HC + 3H10-LC2; chimeric, human constant regions
B5: C253 (antibody, V domains shown)
VH: B3 VH
VL: B2 VL with A9D, D32G, T35S, L37M, I55V, N78T, V98A, K111R
notes: 3C1-HC + 3H10-LC2; chimeric, human constant regions
B6: C347 (antibody, V domains shown)
VH: EVQLQQSGPELVQPGASVKISCKASGYTFTDYNMHWVKQSHGESLEWIGYIYPYNGHTVYNQKFRNKATMTVDSSSSTAYMDLRSLTSEDSAVYYCAKEGLGGYWGQGTTLTVSS
VL: B2 VL with T35A, I55V, V98F, I110V
notes: 3H10-HC + 1A2-LC2; chimeric, human constant regions
B7: C120 (antibody, V domains shown)
VH: B6 VH with Q13K, E43K, Y50N, H57G, R65N, M70L, D73H, S74T, E89D, K98R
VL: B2 VL with Y31F, T35A, L37M, Q42H, K49R, I55V, N96H, K107N
notes: 2B8-HC1 + 1F5-LC1; chimeric, human constant regions
B8: C246 (antibody, V domains shown)
VH: B3 VH
VL: B2 VL
notes: 3C1-HC + 3E5-LC; chimeric, human constant regions
B9: C235 (antibody, V domains shown)
VH: B3 VH
VL: B2 VL with Y31F, T35A, L37M, Q42H, K49R, I55V, N96H, K107N
notes: 3C1-HC + 1F5-LC1; chimeric, human constant regions
B10: C255 (antibody, V domains shown)
VH: EVQLQQSGPELVKPGASVKISCKTSGYTFTDYNMHWVKQSHGKSLEWIGYISPYNGGTAYNQKFKFKSTLTVDTSSSTAYMELRSLTSEDSAVYYCAREGLGGYWGQGTTLTVSS
VL: B2 VL with T35A, I55V, V98F, I110V
notes: 3E5-HC + 1A2-LC2; chimeric, human constant regions

Legend:
hCGRP(8-26) = target: T1, hCGRP(8-26); assay: BLI (Octet), biotin-peptide on SA probe, 45 nM Fab
Procedure: (§1) The kinetic parameters of C245 Fab (Fab monomer fragments derived from antibody C245) binding to six synthetic human CGRP alpha polypeptide fragments (polypeptide 1-13, polypeptide 1-19, polypeptide 1-37, polypeptide 8-19, polypeptide 8-26, and polypeptide 13-24) were determined on an Octet RBD 96e system. Human CGRP synthetic polypeptide fragments were immobilized on the surfaces of SA bioprobes (Sartorius, Cat. No. 18-5019) at the following concentrations: 46.5 nM for hCGRP (1-13), 8.5 nM for CGRP (1-19), 15.5 nM for hCGRP (1-37), 8.5 nM for hCGRP (8-19), 15.5 nM for hCGRP (8-26), and 46.5 nM for hCGRP (13-24). The immobilized synthetic human CGRP polypeptide fragments were bound to 45 nM of C245 Fab and the binding dissociation curves were fitted using analytical software.
(§2) The kinetic parameters of hu224 Fab (Fab monomer fragments derived from humanized antibody hu224) binding to four synthetic human CGRP alpha polypeptide fragments (polypeptide 1-13, polypeptide 1-19, polypeptide 1-37, and polypeptide 8-19) were determined on an Octet RBD 96e system. Human CGRP synthetic polypeptide fragments were immobilized on the surfaces of SA bioprobes (Sartorius, Cat. No. 18-5019) at the following concentrations: 8.5 nM for CGRP (1-19), 15.5 nM for hCGRP (1-37), 10 nM for hCGRP (8-19), and 15.5 nM for hCGRP (8-26). The immobilized synthetic human CGRP polypeptide fragments were bound to 45 nM of hu224 Fab and the binding dissociation curves were fitted using analytical software.

hCGRP(1-37) = target: T2, hCGRP(1-37); assay: BLI (Octet), biotin-peptide on SA probe, 45 nM Fab
Procedure: as §1, §2

hCGRP(1-19) = target: T3, hCGRP(1-19); assay: BLI (Octet), biotin-peptide on SA probe, 45 nM Fab
Procedure: as §1, §2

hCGRP(8-19) = target: T4, hCGRP(8-19); assay: BLI (Octet), biotin-peptide on SA probe, 45 nM Fab
Procedure: as §1, §2

Biotin-huCGRPaSA [1] = target: T5, Biotin-huCGRPaSA; assay: ELISA, transfection supernatant, biotin-CGRP on streptavidin
Procedure: Streptavidin was diluted to 0.5 μg/mL by using PBS (Hyclone) and added into a plate at 100 μL/well. The plate was incubated in a thermostat incubator at 37° C. for 90 min and then washed. 2% BSA was added to the plate at 200 μL/well, and the plate was incubated in the thermostat incubator at 37° C. for 90 min and washed. Biotin-huCGRPaSA was diluted to 2.0 μg/mL with 2% BSA and added into the plate at 100 μL/well, and the plate was incubated in the thermostat incubator at 37° C. for 60 min. The reference antibody (47-RM) was diluted to 2500 ng/ml with a diluent (2% BSA) and serially 4-fold diluted to 0.15 ng/mL, and the chimeric antibodies were diluted with a cell supernatant stock solution. All the chimeric antibody solutions and the reference antibody solution were added into plates at 80 μL/well, and the plates were incubated in a thermostat incubator at 37° C. for 60 min and washed. An HRP-conjugated mouse anti-human antibody IgG4 (manufacturer: Southern Biotech, Cat. No. 9200-05; Fc specificity) was diluted 5000-fold with 2% BSA and added into the plates at 100 μL/well, and the plates were incubated in the thermostat incubator at 37° C. for 60 min and washed. 0.1 mg/mL chromogenic reagent TMB was carefully added at 100 μL/well to avoid bubbles, and the system was incubated at 37° C. for 10 min away from light for chromogenic reaction. Finally, a 2 M hydrochloric acid solution was added at 100 μL/well to stop the reaction while avoiding bubbles, and the plates were read on a microplate reader within 10 min (the detection wavelength was 450 nm; the reference wavelength was 620 nm).

CGRP antigen = assay: cell-based or functional assay
Biotin-huCGRPaSA [2] = target: T5, Biotin-huCGRPaSA; assay: ELISA, purified antibody; relative to reference 47-RM-20190815
Procedure: Streptavidin was diluted to […] by using PBS (Hyclone) and added into a plate at 100 μL/well. The plate was incubated in a thermostat incubator at 37° C. for 90 min and then washed. 2% BSA was added to the plate at 200 μL/well, and the plate was incubated in the thermostat incubator at 37° C. for 90 min and washed. Biotin-huCGRPaSA was diluted to 2.0 μg/mL with 2% BSA and added into the plate at 100 μL/well, and the plate was incubated in the thermostat incubator at 37° C. for 60 min. The chimeric antibodies in Table 3 and reference antibody (47-RM-20190815) were diluted to 1000 ng/ml with a diluent (2% BSA) and serially 10-fold diluted to 1 ng/mL. All the chimeric antibody solutions and the reference antibody solution were added into plates at 100 μL/well, and the plates were incubated in a thermostat incubator at 37° C. for 60 min and washed. An HRP-conjugated mouse anti-human antibody IgG4 (manufacturer: Southern Biotech, Cat. No. 9200-05; Fc specificity) was diluted 5000-fold with 2% BSA and added into the plates at 100 μL/well, and the plates were incubated in the thermostat incubator at 37° C. for 60 min and washed. 0.1 mg/mL chromogenic reagent TMB was carefully added at 100 μL/well to avoid bubbles, and the system was incubated at 37° C. for 5 min away from light for chromogenic reaction. Finally, a 2 M hydrochloric acid solution was added at 100 μL/well to stop the reaction while avoiding bubbles, and the plates were read on a microplate reader within 10 min (the detection wavelength was 450 nm; the reference wavelength was 620 nm). EC₅₀ was fit by using a four-parameter logistic regression (4PL) model.

Biotin-1-19 polypeptide = target: T6, Biotin-1-19 polypeptide; assay: ELISA, transfection supernatant, biotin-CGRP(1-19) on streptavidin
Procedure: Streptavidin was diluted to 0.5 μg/mL by using PBS (Hyclone) and added into a plate at 100 μL/well. The plate was incubated in a thermostat incubator at 37° C. for 90 min and then washed. 2% BSA was added to the plate at 200 μL/well, and the plate was incubated in the thermostat incubator at 37° C. for 90 min and washed. Biotin-1-19 polypeptide was diluted to 2.0 μg/mL with 2% BSA and added into the plate at 100 μL/well, and the plate was incubated in the thermostat incubator at 37° C. for 60 min. The reference antibody (Lily) was diluted to 2500 ng/ml with a diluent (2% BSA) and then serially 4-fold diluted to 0.15 ng/ml. For chimeric antibodies, the stock solution was diluted. All the chimeric antibody solutions and the reference antibody solution were added into plates at 80 μL/well, and the plates were incubated in a thermostat incubator at 37° C. for 60 min and washed. An HRP-conjugated mouse anti-human antibody IgG4 (manufacturer: Southern Biotech, Cat. No. 9200-05; Fc specificity) was diluted 5000-fold with 2% BSA and added into the plates at 100 µL/well, and the plates were incubated in the thermostat incubator at 37° C. for 60 min and washed. 0.1 mg/mL chromogenic reagent TMB was carefully added at 100 μL/well to avoid bubbles, and the system was incubated at 37° C. for 10 min away from light for chromogenic reaction. Finally, a 2 M hydrochloric acid solution was added at 100 μL/well to stop the reaction while avoiding bubbles, and the plates were read on a microplate reader within 10 min (the detection wavelength was 450 nm; the reference wavelength was 620 nm).

Binder | OD value (Biotin-huCGRPaSA [1]) [OD] | Relative binding activity (%) vs Ref(Teva) (CGRP antigen) [%] | Relative activity (%) (Biotin-huCGRPaSA [2]) | OD value (Biotin-1-19 polypeptide) [OD] | further results
B1 | – | – | – | – | Kd (hCGRP(8-26)): 1.18 nM; koff (hCGRP(8-26)): 0.000374 s⁻¹; kon (hCGRP(8-26)): 316000 M⁻¹ s⁻¹; Kd (hCGRP(1-37)): 0.288 nM; koff (hCGRP(1-37)): 7.97e-05 s⁻¹; kon (hCGRP(1-37)): 277000 M⁻¹ s⁻¹; Kd (hCGRP(1-19)): 0.0823 nM; koff (hCGRP(1-19)): 2.62e-05 s⁻¹; kon (hCGRP(1-19)): 318000 M⁻¹ s⁻¹; Kd (hCGRP(8-19)): 0.445 nM; koff (hCGRP(8-19)): 0.000151 s⁻¹; kon (hCGRP(8-19)): 341000 M⁻¹ s⁻¹
B2 | 3.11 | 111 | 56.7 | – | –
B3 | 3.28 | – | 3.4 | 3.15 | –
B4 | 3.09 | 108 | 68.5 | – | –
B5 | 2.46 | – | – | 2.94 | –
B6 | 3.01 | 87.6 | 91.4 | – | –
B7 | 3.09 | 50.3 | 30.6 | – | –
B8 | – | – | – | 0.91 | –
B9 | – | – | – | 2.84 | –
B10 | 3.11 | 74.9 | 108 | – | –
